According to patent US12281340B2, “Method of producing N-acyl-amino group-containing compound” (AJINOMOTO CO., INC., priority 2018, dated 2025):

B1: OsGH3-8: probable indole-3-acetic acid-amido synthetase GH3.8 from Oryza sativa, expressed in E. coli with N-terminal His-tag (protein, listed as Oryza sativa)
chain: MAVMTDVSTTGTALRTPAAGAVKEGDVEKLRFIDEMTTNVDAVQERVLGEILGRNAGTEYLTKCGLDGATDRAAFRAKVPVVSYDDLQPYIQRIANGDRSPILSTHPVSEFLTSSGTSAGERKLMPTIMDELDRRQLLYSLLMPVMNLYVPGLDKGKGLYFLFVKSETKTPGGLTARPVLTSYYKSDHFKNRPYDPYHNYTSPTAAILCADAFQSMYAQMVCGLCQRNDVLRLGAVFASGLLRAIRFLQLNWEQLADDIESGELTPRVTDPSVREAVAAILLPDPELAKLIRAECSKGDWAGIITRVWPNTKYLDVIVTGAMAQYIPTLEFYSGGLPMACTMYASSECYFGLNLRPMCDPSEVSYTIMPNMGYFEFLPVDETGAASGDATQLVDLARVEVGREYELVITTYAGLNRYRVGDVLRVTGFHNAAPQFRFVRRKNVLLSIESDKTDEAELQRAVERASALLRPHGASVVEYTSQACTKRIPGHYVIYWELLTKGAGATVVDADTLGRCCLEMEEALNTVYRQSRVADGSIGPLEIRVVRPGTFEELMDYAISRGASINQYKVPRCVTFPPIVELLDSRVVSSHFSPALPHWTPARRSE
modifications: N-terminal His-tag
notes: probable indole-3-acetic acid-amido synthetase GH3.8 from Oryza sativa, expressed in E. coli with N-terminal His-tag
B2: AtGH3-5: indole-3-acetic acid-amido synthetase GH3.5 from Arabidopsis thaliana, His-tagged (protein, listed as Arabidopsis thaliana)
chain: MPEAPKKESLEVFDLTLDQKNKQKLQLIEELTSNADQVQRQVLEEILTRNADVEYLRRHDLNGRTDRETFKNIMPVITYEDIEPEINRIANGDKSPILSSKPISEFLTSSGTSGGERKLMPTIEEELDRRSLLYSLLMPVMSQFVPGLENGKGMYFLFIKSESKTPGGLPARPVLTSYYKSSHFKERPYDPYTNYTSPNETILCSDSYQSMYSQMLCGLCQHQEVLRVGAVFASGFIRAIKFLEKHWIELVRDIRTGTLSSLITDPSVREAVAKILKPSPKLADFVEFECKKSSWQGIITRLWPNTKYVDVIVTGTMSQYIPTLDYYSNGLPLVCTMYASSECYFGVNLRPLCKPSEVSYTLIPSMAYFEFLPVHRNNGVTNSINLPKALTEKEQQELVDLVDVKLGQEYELVVTTYAGLCRYRVGDLLRVTGFKNKAPQFSFICRKNVVLSIDSDKTDEVELQNAVKNAVTHLVPFDASLSEYTSYADTSSIPGHYVLFWELCLDGNTPIPPSVFEDCCLAVEESFNTVYRQGRVSDKSIGPLEIKIVEPGTFDKLMDYAISLGASINQYKTPRCVKFAPIIELLNSRVVDSYFSPKCPKWVPGHKQWGSN
modifications: His-tag
notes: indole-3-acetic acid-amido synthetase GH3.5 from Arabidopsis thaliana, His-tagged

What was measured:
Format in all cases: biochemical
Parameters in all cases: key: +: Detected; −: Not detected
[1] = Synthesis of N-acylamino acids from various fatty acids using purified acylamino acid synthetase, UPLC-MS detection
Summary of the method: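 Purified enzyme (200 μg/mL) with 5 mM amino acid, 5 mM sodium fatty acid (3 mM palmitate or stearate, plus 10% methanol), 10 mM ATP, 10 mM MgCl2, 1 mM DTT in 50 mM Tris-HCl pH 8.0, shaken 24 h at 25 °C. Amino acid varied by enzyme; product mass detected by UPLC-MS (ESI-negative).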

[2] = Synthesis of N-lauroylamino acid / N-lauroylamino acid derivative using purified acylamino acid synthetase, UPLC-MS detection; details: +ATP
Experimental: 0.2 mL of a reaction solution containing 50 mM Tris-HCl, 5 mM amino acid or D-amino acid derivative, 5 mM sodium laurate, 10 mM ATP, 10 mM MgCl2, 1 mM DTT, 200 μg/mL of the purified enzyme, pH 8.0 was incubated at 25° C. for 24 hours. After completion of the reaction, 0.8 mL of the reaction stop solution (1% (v/v) phosphoric acid, 75% (v/v) methanol) was added, and the mixture was filtrated through the filter followed by being subjected to the UPLC-MS analysis to detect a signal of a molecular weight corresponding to an N-lauroyl-amino acid or an N-lauroyl-amino acid derivative. The condition for the UPLC-MS analysis is as described in Example 2.
As a result of the UPLC-MS analysis, the signal of the molecular weight corresponding to the N-lauroyl-amino acid or the N-lauroyl-amino acid derivative was confirmed in the reaction solution containing the enzyme in combination with the amino acid or the amino acid derivative shown in Table 5 below.

[3] = as above; details: +ATP; remark: listed apart in the source
[4] = Synthesis of N-caprinoylamino acid using purified acylamino acid synthetase, UPLC-MS detection; details: +ATP
Summary of the method: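 Purified enzyme (50 μg) with 5 mM amino acid, 5 mM sodium caprate, 10 mM ATP, 10 mM MgCl2, 1 mM DTT in Tris-HCl pH 8.0, 24 h at 25° C; product detected by UPLC-MS (ESI-negative) as the N-caprinoyl amino acid mass signal.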

[5] = substrates L-Asp and Capric acid
[6] = substrates L-Asp and Caproic acid
[7] = substrates L-Asp and Caprylic acid
[8] = substrates L-Asp and Lauric acid
[9] = substrates L-Asp and Linoleic acid
[10] = substrates L-Asp and Palmitic acid
[11] = substrates L-Asp and myristic acid
[12] = substrates Gly and sodium laurate
[13] = substrates L-Ala and sodium laurate
[14] = substrates L-Arg and sodium laurate
[15] = substrates L-Asp and sodium laurate
[16] = substrates L-Glu and sodium laurate
[17] = substrates L-Lys and sodium laurate
[18] = substrates L-Thr and sodium laurate
[19] = substrates β-Ala and sodium laurate
[20] = substrates Sarcosine and sodium laurate
[21] = substrates Taurine and sodium laurate
[22] = substrates GABA and sodium caprate
[23] = substrates Gly and sodium caprate
[24] = substrates L-Ala and sodium caprate
[25] = substrates L-Arg and sodium caprate
[26] = substrates L-Asn and sodium caprate
[27] = substrates L-Asp and sodium caprate
[28] = substrates L-Cys and sodium caprate
[29] = substrates L-Gln and sodium caprate
[30] = substrates L-Glu and sodium caprate
[31] = substrates L-His and sodium caprate
[32] = substrates L-Ile and sodium caprate
[33] = substrates L-Leu and sodium caprate
[34] = substrates L-Lys and sodium caprate
[35] = substrates L-Met and sodium caprate
[36] = substrates L-Phe and sodium caprate
[37] = substrates L-Pro and sodium caprate
[38] = substrates L-Ser and sodium caprate
[39] = substrates L-Thr and sodium caprate
[40] = substrates L-Trp and sodium caprate
[41] = substrates L-Tyr and sodium caprate
[42] = substrates L-Val and sodium caprate
[43] = substrates β-Ala and sodium caprate

Row | Molecule | signal of molecular weight corresponding to N-acylamino acid [1, 5] | signal of molecular weight corresponding to N-acylamino acid [1, 6] | signal of molecular weight corresponding to N-acylamino acid [1, 7] | signal of molecular weight corresponding to N-acylamino acid [1, 8] | signal of molecular weight corresponding to N-acylamino acid [1, 9] | signal of molecular weight corresponding to N-acylamino acid [1, 10] | signal of molecular weight corresponding to N-acylamino acid [1, 11] | signal of molecular weight corresponding to N-lauroyl amino acid [2, 12] | signal of molecular weight corresponding to N-lauroyl amino acid [2, 13] | signal of molecular weight corresponding to N-lauroyl amino acid [2, 14] | signal of molecular weight corresponding to N-lauroyl amino acid [2, 15] | signal of molecular weight corresponding to N-lauroyl amino acid [2, 16] | signal of molecular weight corresponding to N-lauroyl amino acid [2, 17] | signal of molecular weight corresponding to N-lauroyl amino acid [2, 18] | signal of molecular weight corresponding to N-lauroyl amino acid [2, 19] | signal of molecular weight corresponding to N-lauroyl amino acid derivative [3, 20] | signal of molecular weight corresponding to N-lauroyl amino acid derivative [3, 21] | signal of molecular weight corresponding to N-caprinoyl amino acid [4, 22] | signal of molecular weight corresponding to N-caprinoyl amino acid [4, 23] | signal of molecular weight corresponding to N-caprinoyl amino acid [4, 24] | other results
1 | B1 | + | + | + | + | − | + | + | + | + | + | + | + | + | + | + | − | + | + | + | + | signal of molecular weight corresponding to N-caprinoyl amino acid [4, 25]: +; signal of molecular weight corresponding to N-caprinoyl amino acid [4, 26]: +; signal of molecular weight corresponding to N-caprinoyl amino acid [4, 27]: +; signal of molecular weight corresponding to N-caprinoyl amino acid [4, 28]: +; signal of molecular weight corresponding to N-caprinoyl amino acid [4, 29]: +; signal of molecular weight corresponding to N-caprinoyl amino acid [4, 30]: +; signal of molecular weight corresponding to N-caprinoyl amino acid [4, 31]: +; signal of molecular weight corresponding to N-caprinoyl amino acid [4, 32]: +; signal of molecular weight corresponding to N-caprinoyl amino acid [4, 33]: +; signal of molecular weight corresponding to N-caprinoyl amino acid [4, 34]: +; signal of molecular weight corresponding to N-caprinoyl amino acid [4, 35]: +; signal of molecular weight corresponding to N-caprinoyl amino acid [4, 36]: +; signal of molecular weight corresponding to N-caprinoyl amino acid [4, 37]: +; signal of molecular weight corresponding to N-caprinoyl amino acid [4, 38]: +; signal of molecular weight corresponding to N-caprinoyl amino acid [4, 39]: +; signal of molecular weight corresponding to N-caprinoyl amino acid [4, 40]: +; signal of molecular weight corresponding to N-caprinoyl amino acid [4, 41]: +; signal of molecular weight corresponding to N-caprinoyl amino acid [4, 42]: +; signal of molecular weight corresponding to N-caprinoyl amino acid [4, 43]: +
2 | B2 | + | + | + | + | − | + | + | + | + | + | + | + | + | + | + | + | + | + | + | + | signal of molecular weight corresponding to N-caprinoyl amino acid [4, 25]: +; signal of molecular weight corresponding to N-caprinoyl amino acid [4, 26]: +; signal of molecular weight corresponding to N-caprinoyl amino acid [4, 27]: +; signal of molecular weight corresponding to N-caprinoyl amino acid [4, 28]: +; signal of molecular weight corresponding to N-caprinoyl amino acid [4, 29]: +; signal of molecular weight corresponding to N-caprinoyl amino acid [4, 30]: +; signal of molecular weight corresponding to N-caprinoyl amino acid [4, 31]: +; signal of molecular weight corresponding to N-caprinoyl amino acid [4, 32]: +; signal of molecular weight corresponding to N-caprinoyl amino acid [4, 33]: +; signal of molecular weight corresponding to N-caprinoyl amino acid [4, 34]: +; signal of molecular weight corresponding to N-caprinoyl amino acid [4, 35]: +; signal of molecular weight corresponding to N-caprinoyl amino acid [4, 36]: +; signal of molecular weight corresponding to N-caprinoyl amino acid [4, 37]: +; signal of molecular weight corresponding to N-caprinoyl amino acid [4, 38]: +; signal of molecular weight corresponding to N-caprinoyl amino acid [4, 39]: +; signal of molecular weight corresponding to N-caprinoyl amino acid [4, 40]: +; signal of molecular weight corresponding to N-caprinoyl amino acid [4, 41]: +; signal of molecular weight corresponding to N-caprinoyl amino acid [4, 42]: +; signal of molecular weight corresponding to N-caprinoyl amino acid [4, 43]: +
